Some results are limits rather than exact numbers.

Nine molecules from patent US20210300999A1 (VANDERBILT UNIVERSITY, published 2021) can be followed below.

Experiment [1] has as its target T1, SARS-CoV-2 spike (S) glycoprotein on virus (neutralization assays) (SARS-CoV-2, UniProt P0DTC2 14-1273). Nature of the experiment: cell-based or functional assay.
Experiment [2] has as its target T2, SARS-CoV-2 S receptor-binding domain (SRBD), residues 319-541 (SARS-CoV-2, UniProt P0DTC2 319-541).
T2 construct: range 319-541
Nature of the experiment: ELISA on coated antigen. On the technique in general: An ELISA detects its analyte on a solid surface through an enzyme-linked reagent.

Experiment [3] deals with T1, SARS-CoV-2 spike (S) glycoprotein on …. Nature of the experiment: cell-based or functional assay. This is another data set of the same source.
Another experiment has as its target T3, SARS-CoV-2 NTD (Table A) (SARS-CoV-2, UniProt P0DTC2 14-305).
T3 construct: domain: NTD
The experiment in a line: ELISA, purified IgG.

The target in experiment [4] is SARS-CoV Spike trimer (Table A) (SARS-CoV, UniProt P59594 14-1190). The experiment in a line: ELISA, purified IgG.
The target in another experiment is T4, SARS-CoV-2 RBD (Table A) (SARS-CoV-2, UniProt P0DTC2 319-541).
T4 construct: domain: RBD
Nature of the experiment: ELISA, purified IgG.

B1: COV2-2094 (antibody, V domains shown)
VH: EVQLVESGGGVVRPGGSLRLSCAASGFIFDDYDMTWVRQAPGKGLEWVSGINWNGGSTGYADSVKGRFTISRDNAKNSLYLQMNSLRAEDTALYHCAVIMSPIPRYSGYDWAGDAFDIWGQGTMVTVSS
VL: SSELTQDPAVSVALGQTVRITCQGDSLRSYYASWYQQKPGQVPILVIYDKNNRPSGIPDRFSGSSSGNTASLTITGAQAEDEADYYCNSRDSSGNAVVFGGGTKLTVL
As usually defined, the EC50 is the midpoint of the concentration-response curve. For the molecule B1, the “Neutralization IC50, ng/mL (FRNT, authentic SARS-CoV-2)” value (shortened to “Neutralization IC50, ng/mL”) in experiment [1] was determined as 154 ng/mL. Besides, in experiment [2], the midpoint of the response, the EC50, lay at 0.0014 µg/mL. Also, the “Nano-luciferase virus reduction test, SARS-CoV-2, IC50” value (from here on “Nano-luciferase virus reduction test”) in experiment [3] was below 0.05 µg/mL. In experiment [3], the “SARS-CoV-2 focus reduction test, IC50” value was 0.151 µg/mL. Also, the “ELISA OD 450 nm” value with SARS-CoV-2 NTD (Table A) came out at 0.1 OD 450 nm; in experiment [4], 4.1 OD 450 nm; in the experiment with SARS-CoV-2 RBD (Table A), 4.3 OD 450 nm.

B2: COV2-2514 (antibody, V domains shown)
VH: EVQLVESGGGVVRPGGSLRLSCAASGFIFDDYDMTWVRQAPGKGLEWVSGINWNGGSTGYADSVKGRFTISRDNAKNSLYLQMNSLRAEDTALYHCAVIMSPIPRYSGYDWAGDAFDIWGQGTMVTVSS
VL: SSELTQDPAVSVALGQTVRITCQGDSLRSYYASWYQQKPGQVPILVIYDKNNRPSGIPDRFSGSSSGNTASLTITGAQAEDEADYYCNSRDSSGNAVVFGGGTKLTVL
As to B2, the “SARS-CoV-2 focus reduction test, IC50” value in experiment [3] came out at 0.084 µg/mL. Also, the entries for the “ELISA OD 450 nm” value (with SARS-CoV-2 NTD (Table A); in experiment [4]; with SARS-CoV-2 RBD (Table A)) were 0.09 OD 450 nm, 3.6 OD 450 nm and 3.56 OD 450 nm, respectively.

B3: COV2-2952 (antibody, V domains shown)
VH: EVQLVESGGGLVQPGGSLRLSCAASGLTVRSNYMTWVRQTPGKGLEWVSVIYSGGSTFYADSVKGRFTISRDNSKNTVYLQMNSLRAEDTAVYYCARDLVTYGLDVWGQGTTVTVSS
VL: DIQLTQSPSFLSASVGDRVTITCRASQGISNYLAWYQQKPGTAPNLLIYAASTLQSGVPSRFSGSGSGTEFTLTISSLQPEDFATYYCQLLNSHPLTFGQGTRLEIK
Turning to B3, the “SARS-CoV-2 focus reduction test, IC50” value in experiment [3] stood at 0.089 µg/mL. Also, the “ELISA OD 450 nm” value with SARS-CoV-2 NTD (Table A) came out at 0.1 OD 450 nm.

B4: COV2-2165 (antibody, V domains shown)
VH: EVQLVESGGGLVQPGGSLRLSCAASGLTVRSNYMTWVRQTPGKGLEWVSVIYSGGSTFYADSVKGRFTISRDNSKNTVYLQMNSLRAEDTAVYYCARDLVTYGLDVWGQGTTVTVSS
VL: DIQLTQSPSFLSASVGDRVTITCRASQGISNYLAWYQQKPGTAPNLLIYAASTLQSGVPSRFSGSGSGTEFTLTISSLQPEDFATYYCQLLNSHPLTFGQGTRLEIK
Consider B4, for which the “Neutralization IC50, ng/mL” value in experiment [1] was determined as 332 ng/mL. In addition, in experiment [3], the “Nano-luciferase virus reduction test” value was below 0.4 µg/mL and the “SARS-CoV-2 focus reduction test, IC50” value amounted to 0.185 µg/mL. In addition, the “ELISA OD 450 nm” value in the experiment with SARS-CoV-2 NTD (Table A) was 0.05 OD 450 nm.

B5: COV2-2096 (antibody, V domains shown)
VH: QVQLVQSGAEVKKPGASVKVSCKASGYTFGSFDINWVRQATGQGLEWMGRMNSNSGNTAYAQKFQGRVTMTRDTSTNTAYMELSSLRSEDTAMYYCARMRSGWPTHGRPDDFWGRGTLVTVSS
VL: QSVLTQAPSASGTPGQRVTISCSGSNSNIGSYTINWYQQLPGTAPKLLIYGNDQRTSGVPDRFSGSKFGTSASLAISGLQSEDENNYYCAVWDDSLNGLVFGGGTKLTVL
As to B5, the “Neutralization IC50, ng/mL” value in experiment [1] was determined as 59 ng/mL. In addition, in experiment [3], the “Nano-luciferase virus reduction test” value is below 0.2 µg/mL and the “SARS-CoV-2 focus reduction test, IC50” value worked out at 0.29 µg/mL. Also, the “ELISA OD 450 nm” value in the experiment with SARS-CoV-2 NTD (Table A) turned out to be 0.12 OD 450 nm.

B6: COV2-2391 (antibody, V domains shown)
VH: QVQLVQSGAEVKKPGASVKVSCKASGYTFGSFDINWVRQATGQGLEWMGRMNSNSGNTAYAQKFQGRVTMTRDTSTNTAYMELSSLRSEDTAMYYCARMRSGWPTHGRPDDFWGRGTLVTVSS
VL: QSVLTQAPSASGTPGQRVTISCSGSNSNIGSYTINWYQQLPGTAPKLLIYGNDQRTSGVPDRFSGSKFGTSASLAISGLQSEDENNYYCAVWDDSLNGLVFGGGTKLTVL
Take B6: in experiment [3], the “SARS-CoV-2 focus reduction test, IC50” value worked out at 0.045 µg/mL. Moreover, the “ELISA OD 450 nm” value with SARS-CoV-2 NTD (Table A) turned out to be 0.1 OD 450 nm.

B7: COV2-2838 (antibody, V domains shown)
VH: QMQLVQSGPEVKKPGTSVKVSCKASGFTFMSSAVQWVRQARGQRLEWIGWIVIGSGNTNYAQKFQERVTITRDMSTSTAYMELSSLRSEDTAVYYCAAPYCSSISCNDGFDIWGQGTMVTVSS
VL: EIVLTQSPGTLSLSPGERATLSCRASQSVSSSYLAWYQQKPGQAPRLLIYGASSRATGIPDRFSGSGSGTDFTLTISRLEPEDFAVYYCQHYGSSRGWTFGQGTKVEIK
Consider B7, for which, in experiment [3], the “SARS-CoV-2 focus reduction test, IC50” value came out at 0.014 µg/mL. Also, the “ELISA OD 450 nm” value with SARS-CoV-2 NTD (Table A) was 0.12 OD 450 nm.

B8: COV2-2196 (antibody, V domains shown)
VH: QMQLVQSGPEVKKPGTSVKVSCKASGFTFMSSAVQWVRQARGQRLEWIGWIVIGSGNTNYAQKFQERVTITRDMSTSTAYMELSSLRSEDTAVYYCAAPYCSSISCNDGFDIWGQGTMVTVSS
VL: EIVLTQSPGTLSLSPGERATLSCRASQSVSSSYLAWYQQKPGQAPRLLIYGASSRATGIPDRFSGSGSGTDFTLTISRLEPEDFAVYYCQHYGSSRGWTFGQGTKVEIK
notes: also called mAb COV2-2196
As for B8, the “Neutralization IC50, ng/mL” value in experiment [1] amounted to 15 ng/mL. In experiment [3], the “Nano-luciferase virus reduction test” value was below 0.1 µg/mL and the “SARS-CoV-2 focus reduction test, IC50” value is 0.029 µg/mL. Moreover, the “ELISA OD 450 nm” value with SARS-CoV-2 NTD (Table A) worked out at 0.05 OD 450 nm.

B9: COV2-3025 (antibody, V domains shown)
VH: EVQLVQSGPEVKKPGTSVKVSCKASGFTFMSSAVQWVRQARGQRLEWIGWIVIGSGNTNYAQKFQERVTITRDMSTSTAYMELSSLRSEDTAVYYCAAPYCSSISCNDGFDIWGQGTMVTVSS
VL: EIVLTQSPGTLSLSPGERVTLSCRASQSVSSSYLAWYQQKPGQAPRLLIYGASSRATGIPDRFSGSGSGTDFTLTISRLEPEDFAVYYCQHYGSSRGWTFGQGTKVEIK
With B9, the “Neutralization IC50, ng/mL” value in experiment [1] stood at 37 ng/mL. This molecule also yielded an EC50 in experiment [2] of 0.0011 µg/mL. Besides, the “SARS-CoV-2 focus reduction test, IC50” value in experiment [3] amounted to 0.031 µg/mL. For the same molecule, the “ELISA OD 450 nm” value in experiment [4] worked out at 0.21 OD 450 nm; with SARS-CoV-2 RBD (Table A), 3.7 OD 450 nm.
